For assay [1], the target named is recombinant human IGF-1 (human, UniProt P05019 49-118). Briefly: ELISA, plate coated with the cytokine at 2 µg/ml, FB704 in four-fold serial dilutions, HRP-labeled goat anti-human IgG, A450 [Cont'd) B]. How it is done: (§1) Plates were coated with recombinant human IL3, IL4, IL5, IL6, IL11, IL17A, CNTF, OSM, IGF-1 (R&D Systems), IL2, FGF (Prospec), VEGF, TNF-α, EGF (Peprotech) at 2 μg/ml in 0.1M NaHCO₃ buffer at 4° C. overnight. After being washed by PBS, the wells were blocked with 1% (w/v) BSA in PBS at RT for 1 h. Purified anti-IL6 antibodies in four-fold serial dilutions at a starting concentration of 2 μg/ml were placed into the wells and incubated at RT for 1 h. The plate was washed in PBS containing 0.1% (w/v) Tween 20 and then probed with HRP-labeled goat anti-human IgG (KPL) diluted 1:10,000 in 1% BSA-PBS for 40 min at RT. The plate was again washed and a TMB substrate solution was added to develop color. Stop solution (1M H₂SO₄) was then added and the absorption at 450 nm quantitated using VERSA max (Molecular Devices).
recombinant human IGF-1, sequence (P05019 49-118 limits assumed): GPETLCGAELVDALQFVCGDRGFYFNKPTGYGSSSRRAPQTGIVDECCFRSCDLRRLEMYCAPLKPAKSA
(§2) An ELISA assay as described herein was performed to confirm the binding specificity of high-affinity anti-IL6 antibodies described herein. Briefly, plates were coated with different cytokines as indicated in FIG. 3A (IL6 family cytokines) and FIG. 3B (non-IL6 family cytokines) and the binding activities of the FB704 antibody clone (i.e. Ag1-4-6) to those cytokines were examined.
For orientation: An ELISA detects its analyte on a solid surface through an enzyme-linked reagent.

Assay [2] addresses recombinant human EGF (human, UniProt P01133 971-1023). Described as above. On the procedure: as §1, §2
For assay [3], the target named is recombinant human VEGF (human, UniProt P15692-4 27-191, limits assumed). The assay is described as above. On the procedure:
as §1, §2

In assay [4] the target is recombinant human TNF-α (human, UniProt P01375 77-233). Described as above. How it is done:
as §1, §2

Assay [5] concerns the target T1, recombinant human interleukin-6 (IL6) (human, UniProt P05231 30-212). Briefly: cell-based or functional assay.
For assay [6], the target named is T1, recombinant human interleukin-6 (IL6). Briefly: ELISA, plate coated with recombinant human IL6 at 2 µg/ml, FB704 in four-fold serial dilutions from 2 µg/ml, HRP-labeled goat anti-human IgG, A450 [Cont'd) B]. On the procedure: as §1, §2
Assay [7] has the same target. Briefly: ELISA, plate coated with recombinant human IL6 at 2 µg/ml, FB704 in four-fold serial dilutions from 2 µg/ml, HRP-labeled goat anti-human IgG, A450. On the procedure:
as §1, §2

Assay [8] has as its target T2, recombinant human OSM (human, UniProt P13725 26-221, limits assumed).
T2 sequence (looked up): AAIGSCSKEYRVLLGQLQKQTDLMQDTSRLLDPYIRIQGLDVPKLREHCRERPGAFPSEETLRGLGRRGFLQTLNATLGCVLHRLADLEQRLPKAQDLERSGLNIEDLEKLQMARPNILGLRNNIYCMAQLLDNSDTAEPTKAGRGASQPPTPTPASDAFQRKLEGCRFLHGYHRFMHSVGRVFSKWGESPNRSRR
Briefly: ELISA, plate coated with the cytokine at 2 µg/ml, FB704 in four-fold serial dilutions, HRP-labeled goat anti-human IgG, A450. How it is done: as §1, §2

Assay [9] deals with T3, recombinant human IL11 (human, UniProt P20809 22-199).
T3 sequence (looked up): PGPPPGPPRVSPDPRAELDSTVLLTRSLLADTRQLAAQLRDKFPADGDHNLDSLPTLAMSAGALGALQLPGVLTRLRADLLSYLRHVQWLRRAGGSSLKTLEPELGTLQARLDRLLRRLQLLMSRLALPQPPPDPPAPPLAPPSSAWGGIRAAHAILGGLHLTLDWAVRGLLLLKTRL
The assay is described as above. On the procedure:
as §1, §2

The target of assay [10] is T4, recombinant human IL17A (human, UniProt Q16552 20-155, limits assumed).
T4 sequence (looked up): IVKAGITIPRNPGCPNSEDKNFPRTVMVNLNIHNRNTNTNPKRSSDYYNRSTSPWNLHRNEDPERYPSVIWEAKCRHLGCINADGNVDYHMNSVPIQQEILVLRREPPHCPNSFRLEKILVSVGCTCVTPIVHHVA
The description is as above. How it is done: as §1, §2

In assay [11] the target is T5, recombinant human IL5 (human, UniProt P05113 20-134).
T5 sequence (looked up): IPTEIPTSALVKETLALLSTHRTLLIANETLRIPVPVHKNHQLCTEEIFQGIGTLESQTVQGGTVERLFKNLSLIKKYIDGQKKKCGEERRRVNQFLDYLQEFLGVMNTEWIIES
The assay is described as above. How it is done:
as §1, §2

Assay [12] addresses T6, recombinant human IL3 (human, UniProt P08700 20-152).
T6 sequence (looked up): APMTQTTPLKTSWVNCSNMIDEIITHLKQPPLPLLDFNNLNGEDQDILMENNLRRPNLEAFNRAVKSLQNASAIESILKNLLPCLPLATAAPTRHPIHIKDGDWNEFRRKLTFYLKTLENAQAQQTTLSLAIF
Described as above. On the procedure:
as §1, §2

Assay [13] concerns the target T7, recombinant human CNTF (human, UniProt P26441 2-200).
T7 sequence (looked up): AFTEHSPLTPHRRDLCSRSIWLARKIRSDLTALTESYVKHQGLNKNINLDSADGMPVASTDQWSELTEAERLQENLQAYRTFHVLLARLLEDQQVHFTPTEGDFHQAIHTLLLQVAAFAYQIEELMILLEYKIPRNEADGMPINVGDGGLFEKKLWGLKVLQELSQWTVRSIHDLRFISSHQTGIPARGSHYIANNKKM
Described as above. On the procedure:
as §1, §2

Assay [14] addresses T8, recombinant human IL4 (human, UniProt P05112 25-153).
T8 sequence (looked up): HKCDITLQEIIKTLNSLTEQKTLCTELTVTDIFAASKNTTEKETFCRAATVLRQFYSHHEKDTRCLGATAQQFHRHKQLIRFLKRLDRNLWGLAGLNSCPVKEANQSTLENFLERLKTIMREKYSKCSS
The description is as above. On the procedure: as §1, §2

For assay [15], the target named is recombinant human IL2 (human, UniProt P60568 21-153). The assay is described as above. How it is done: as §1, §2
recombinant human IL2, sequence (P60568 21-153 limits assumed): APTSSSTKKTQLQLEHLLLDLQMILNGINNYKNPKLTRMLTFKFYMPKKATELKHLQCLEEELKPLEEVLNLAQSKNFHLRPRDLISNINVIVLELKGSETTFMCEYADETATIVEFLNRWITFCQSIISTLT
Assay [16] addresses T1, recombinant human interleukin-6 (IL6). Briefly: SPR (BIAcore T200), IgG captured by anti-human IgG, IL6 injected at 0.4-25.6 nM. How it is done:
IgG binding affinity was measured by using human antibody capture kit (GE healthcare) in BIAcore T200 system (GE healthcare). The mouse anti-human IgG was immobilized on a CMS sensor chip via amine coupling. Approximately 700 RU of purified anti-IL6 IgG in HBS-EP+ buffer were captured onto the immobilized surface. The recombinant human IL6 (R&D Systems) at concentrations ranging from 25.6 nM to 0.4 nM in HBS-EP+ buffer was injected for 2 minutes using a flow rate of 30 μl/min. Dissociation of bound antigen in HBS⁻EP⁺ buffer flow was followed for 7 minutes. The surfaces IgG were regenerated after each cycle using regeneration solution (3M MgCl₂). The dissociation constant (KD) was calculated as kd/ka.

Assay [17] shares this target. Briefly: cell-based or functional assay. The source holds these as a separate data set.

recombinant human TNF-α, sequence (P01375 77-233 limits assumed): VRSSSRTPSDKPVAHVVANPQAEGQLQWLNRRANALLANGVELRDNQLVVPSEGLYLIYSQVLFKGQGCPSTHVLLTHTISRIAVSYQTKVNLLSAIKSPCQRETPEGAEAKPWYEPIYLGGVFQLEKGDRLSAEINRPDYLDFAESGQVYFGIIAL
recombinant human EGF, sequence (P01133 971-1023 limits assumed): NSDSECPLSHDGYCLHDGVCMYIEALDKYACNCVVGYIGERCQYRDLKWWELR
recombinant human VEGF, sequence (P15692 other isoform, or with tags, fused parts or gaps limits assumed): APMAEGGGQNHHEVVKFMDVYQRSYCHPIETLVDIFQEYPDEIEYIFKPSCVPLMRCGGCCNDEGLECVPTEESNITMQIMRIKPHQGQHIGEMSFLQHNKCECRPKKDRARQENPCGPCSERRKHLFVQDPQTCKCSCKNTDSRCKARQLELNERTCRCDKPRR

B1: Ag1-4-6 (fully human anti-IL6 IgG1 antibody) (antibody, V domains shown)
VH: EVQLVESGPALVKPTQTLTLTCTFSGFSLSTGGMSVSWIRQPPGKALEWLARIDWDDDKFYTPSLKTRLTISRDTSKNQVVLIMTNMDPVDTATYYCARMHIDDSNGYYSDAFHIWGQGTMVTVSS
VL: EIVLTQSPATLSVSPGERVTLSCRDSQSVSSTSLAWYQQKSGQAPRLLIYDTSNRATGIPARFSGGGSGTDFTLTISSLEPEDFAVYYCSFVSRPYPRFTFGQGTKVEIK
notes: also called FB704
B1: the binding result in assay [1], in assay [2], in assay [3], in assay [4], in [8] and in assay [9] was “no binding (tested: 2 µg/ml)” each time. Also, the binding result in [10], in assay [11], in assay [12], in assay [13], in assay [14] and in [15] was “no binding (tested: 2 µg/ml)” throughout. In addition, the “inhibition percentage of control of STAT3 phosphorylation in U266 cells, antibody at 0.05 µg/ml” value (shortened to “inhibition percentage of control … at 0.05 µg/ml”) in [5] is 0%. For the same molecule, the “inhibition percentage of control of STAT3 phosphorylation in U266 cells, antibody at 0.5 µg/ml” value (“inhibition percentage of control … at 0.5 µg/ml” below) in assay [5] was found to be 60%. The “EC50 (read off the curve)” value in assay [6] and in [7] was about 0.01 µg/mL throughout. Moreover, the dissociation constant Kd (in general, a measure of binding affinity in units of concentration) in assay [16] is 0.75 nM. Moreover, the koff – broadly, the first-order rate constant of dissociation – in [16] is 0.00121 s⁻¹. Also, the association rate constant (kon) (in general, the second-order rate constant of association) in assay [16] came out at 1.61e+06 M⁻¹ s⁻¹. Also, the “IC50 of inhibition of IL6-dependent B9 cell proliferation (WST-1, 72 h)” value (“IC50 of inhibition … (WST-1, 72 h)” for short) in assay [17] was 0.0468 µg/mL.

B2: 1-4-62 (fully human anti-IL6 IgG1 antibody) (antibody, V domains shown)
VH: EVQLVESGPALVKPTQTLTLTCTFSGFSLSTGGMSVSWIRQPPGKALEWLARIDWDDDKFYTPSLKTRLTISRDTSKNQVVLIMTNMDPVDTATYYCARMHIDDSNGYYSDAFHIWGQGTMVTVSS
VL: EIVLTQSPATLSVSPGERVTLSCRDSQSVSSTSLAWYQQKSGQAPRLLIYDTSNRATGIPARFSGGGSGTDFTLTISSLEPEDFAVYYCLVRNNWPPRFTFGQGTKVEIK
notes: also called parent clone
B2: in assay [5], the “inhibition percentage of control … at 0.05 µg/ml” value is 0% and the “inhibition percentage of control … at 0.5 µg/ml” value was 8%. In addition, in assay [16], the dissociation constant (Kd) came out at 3.85 nM, the koff turned out to be 0.00166 s⁻¹ and the kon was determined as 438000 M⁻¹ s⁻¹. For the same molecule, in [17], the “IC50 of inhibition … (WST-1, 72 h)” value amounted to 0.618 µg/mL.

B3: HAg1T-3-10 (fully human anti-IL6 IgG1 antibody) (antibody, V domains shown)
VH: EVQLVESGPALVKPTQTLTLTCTFSGFSLSTGGMSVSWIRQPPGKALEWLARIDWDDDKFYTPSLKTRLTISRDTSKNQVVLIMTNMDPVDTATYYCARMHIDDSNGYFSDAFHIWGQGTMVTVSS
VL: EIVLTQSPATLSVSPGERVTLSCRDSQSVSSTSLAWYQQKSGQAPRLLIYDTSNRATGIPARFSGGGSGTDFTLTISSLEPEDFAVYYCSFVSRPYPRFTFGQGTKVEIK
notes: also called HAgT1-3-10
With B3, in assay [5], the “inhibition percentage of control … at 0.05 µg/ml” value was 49% and the “inhibition percentage of control … at 0.5 µg/ml” value worked out at 93%. For the same molecule, in assay [16], the Kd was 0.27 nM, the koff stood at 0.0006 s⁻¹ and the kon was found to be 2.24e+06 M⁻¹ s⁻¹. Further, the “IC50 of inhibition … (WST-1, 72 h)” value in assay [17] turned out to be 0.00456 µg/mL.

The values above are taken from patent publication US20170362317A1 (FOUNTAIN BIOPHARMA, published 2017).
